Experimental data reported in patent publication CN114641502A (SHANGHAI YINGMING BIOTECHNOLOGY CO LTD, dated 2022).

Assays:
[1] = molecular target: T1, 人TIGIT (full length, on cells) (human, UniProt Q495A1 22-244); assay: cell-based or functional assay
T1 sequence (looked up): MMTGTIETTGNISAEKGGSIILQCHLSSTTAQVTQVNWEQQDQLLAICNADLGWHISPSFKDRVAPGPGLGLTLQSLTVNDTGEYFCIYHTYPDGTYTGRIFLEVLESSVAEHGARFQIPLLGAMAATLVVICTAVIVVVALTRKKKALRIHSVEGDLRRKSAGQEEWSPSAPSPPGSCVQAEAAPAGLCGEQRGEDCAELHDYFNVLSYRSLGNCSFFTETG

[2] = molecular target: T1, 人TIGIT (full length, on cells); assay: flow cytometry on 293F cells expressing human TIGIT
[3] = molecular target: T2, 小鼠TIGIT (full length, on cells) (mouse, UniProt P86176 29-249); assay: flow cytometry on Flp-In CHO cells expressing mouse TIGIT
T2 construct: whole, on cells; also called mouse TIGIT; W364-FlpinCHO.mpro1.FL
T2 sequence (looked up): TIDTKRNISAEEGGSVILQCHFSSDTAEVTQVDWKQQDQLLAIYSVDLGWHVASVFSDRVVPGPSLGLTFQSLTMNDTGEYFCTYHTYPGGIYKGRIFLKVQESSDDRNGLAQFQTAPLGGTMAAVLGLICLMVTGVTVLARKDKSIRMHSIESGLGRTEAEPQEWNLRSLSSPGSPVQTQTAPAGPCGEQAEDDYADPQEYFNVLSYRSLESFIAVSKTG

[4] = molecular target: T3, 食蟹猴TIGIT (full length, on cells) (cynomolgus monkey, UniProt A0A7N9I9V4 89-312); assay: flow cytometry on Flp-In CHO cells expressing cynomolgus TIGIT
T3 construct: whole, on cells; also called cynomolgus TIGIT; W364-FlpinCHO.cynopro1.FL

[5] = molecular target: T1, 人TIGIT (full length, on cells); assay: flow cytometry affinity on CHOK1 cells over-expressing human TIGIT, quantitative beads
W364-hPro1.ECD.His = molecular target: T4, W364-hPro1.ECD.His (human, UniProt Q495A1 22-141); assay: SPR (Biacore 8K), antibody captured by anti-human IgG Fc, TIGIT ECD as analyte, 1:1 model
T4 construct: extracellular domain; Analyte in the SPR assay; 20 kDa used for molar concentration; also called W364-hPro1.ECD.his (Sino); 人TIGIT胞外结构域
T4 sequence (looked up): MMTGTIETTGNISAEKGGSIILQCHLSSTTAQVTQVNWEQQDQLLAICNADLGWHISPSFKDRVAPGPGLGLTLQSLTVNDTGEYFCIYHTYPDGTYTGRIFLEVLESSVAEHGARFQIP

[6] = molecular target: T1, 人TIGIT (full length, on cells); assay: flow cytometry competition on 293F cells expressing human TIGIT; competitor CD155.ECD-mFc at 2 μg/mL

T3 sequence (A0A7N9I9V4 entry or part of it): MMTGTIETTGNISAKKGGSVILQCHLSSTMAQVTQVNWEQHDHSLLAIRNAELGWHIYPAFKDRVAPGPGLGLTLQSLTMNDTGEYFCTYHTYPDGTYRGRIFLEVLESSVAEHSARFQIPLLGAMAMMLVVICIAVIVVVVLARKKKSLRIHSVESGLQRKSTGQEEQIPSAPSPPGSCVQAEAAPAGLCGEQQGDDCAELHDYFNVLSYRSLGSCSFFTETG

B1: W3645-2.131.4-hIgG1L3 (antibody, V domains shown)
VH: QLQLQESGPGLVKPSETLSLTCAVSGGSITSSSYYWGWIRQPPGKGLEWIGSIFFSGITYYNPSLKSRVTVSVDTSKNQFSLKLSSVTAADTAIYYCARRGLGGILASGYFDYWGQGTLVTVSS
VL: QSALTQPASVSGSPGQSITISCTGTSNDVGGYNYVSWYQQHPGKAPRLLIFDVSNRRTGISNRFSGSKSGITASLTISGLQAEDEADYYCSSYTSISTLVVFGGGTKLTVL
notes: Fully human (OMT rat derived), human IgG1; also called WBP3645先导抗体; WBP3645最终先导抗体
- ADCC EC50 (LDH release, PBMC effectors) [1]: 0.0019 nM
- NFAT-荧光素酶报告基因 EC50 [1]: 0.92 nM
- EC50 [2]: 0.17 nM
- EC50 [3]: 0.14 nM
- EC50 [4]: 0.05 nM
- Kd [5]: 0.027 nM
- Kd (W364-hPro1.ECD.His): 0.75 nM
- IC50 [6]: 0.14 nM
